Measurements from patent US20130196383A1, “Method of Producing Dicer” (published 2013).
Blank lines part the entries; values can stand above or below the binder they belong to.

Columns and labels:
[1] = target: T1, hDcr-C (RNase IIIa/IIIb-dsRBD) fragment of human Dicer (Homo sapiens, UniProt Q9UPY3 SEQ:1235-1922); assay: filter; out of detectable limit; almost no binding; conditions: tags: expressed from pHMGWA-His6-MBP vector, E. coli; label: 5'-32P; hairpin pre-miRNA, 73 nt
T1 chain: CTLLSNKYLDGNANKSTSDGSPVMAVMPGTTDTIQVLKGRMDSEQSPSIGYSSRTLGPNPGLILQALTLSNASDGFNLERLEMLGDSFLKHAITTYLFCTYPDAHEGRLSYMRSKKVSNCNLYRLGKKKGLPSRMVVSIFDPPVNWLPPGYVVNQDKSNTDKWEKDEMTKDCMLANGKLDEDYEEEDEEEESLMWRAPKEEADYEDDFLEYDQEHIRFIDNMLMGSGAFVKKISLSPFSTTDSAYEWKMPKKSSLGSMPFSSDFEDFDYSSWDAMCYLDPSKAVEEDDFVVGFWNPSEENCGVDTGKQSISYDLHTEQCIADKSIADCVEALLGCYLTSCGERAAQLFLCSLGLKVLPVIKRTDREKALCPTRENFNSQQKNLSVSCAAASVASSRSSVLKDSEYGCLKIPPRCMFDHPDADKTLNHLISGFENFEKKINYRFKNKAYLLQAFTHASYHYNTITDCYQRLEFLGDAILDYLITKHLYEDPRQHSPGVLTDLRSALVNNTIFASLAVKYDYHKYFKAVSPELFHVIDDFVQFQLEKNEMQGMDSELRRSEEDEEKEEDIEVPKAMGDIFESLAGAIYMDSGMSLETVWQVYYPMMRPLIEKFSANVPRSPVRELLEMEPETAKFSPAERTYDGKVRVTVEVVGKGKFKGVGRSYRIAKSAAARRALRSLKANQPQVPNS
Procedure: Filter binding assays of hDcr and different hDcr fragments were performed in the same way as previously described (7). Briefly, serial dilutions of hDcr protein were incubated in a buffer containing 20 mM Tris-HCl (pH 7.5), 25 mM NaCl, 5 mM EDTA, 1 mM dithiothreitol (DTT), 1% glycerol and ˜0.5-1 nM (1500 CPM) of 5′-end ³²P-labeled duplex RNA substrate (one strand was labeled) at room temperature for 60 min in a 30 μl of total volume. Following incubation, a 25 μl aliquot of each reaction was applied to a dot-blot apparatus equipped with three membranes: Tuffryn, Protran and Nytran (from top to bottom). After drying, the bound (on Protran) or free (on Nytran) RNAs were quantified by a Phosphorimager (GE Healthcare). Percent bound RNA, calculated as the ratio of radioactivity detected on the Protran membrane over the total input radioactivity, was plotted as a function of protein concentration. Kd was determined by global fitting to the equation: kobsd=(kₘₐₓ[…]) (Kd+[Dicer])−1, where kobsd is the observed rate constant at a given protein concentration, kₘₐₓ is the maximal rate constant with saturating protein, and Kd is the protein concentration that provides half the maximal rate. Curve fitting was conducted with KaleidaGraph (Synergy Software, Reading, Pa.). […]

[2] = target: T2, hDcr-CΔRBD fragment of human Dicer (Homo sapiens, UniProt Q9UPY3 SEQ:1235-1844); assay: filter; out of detectable limit; conditions: tags: expressed from pHMGWA-His6-MBP vector, E. coli
T2 chain: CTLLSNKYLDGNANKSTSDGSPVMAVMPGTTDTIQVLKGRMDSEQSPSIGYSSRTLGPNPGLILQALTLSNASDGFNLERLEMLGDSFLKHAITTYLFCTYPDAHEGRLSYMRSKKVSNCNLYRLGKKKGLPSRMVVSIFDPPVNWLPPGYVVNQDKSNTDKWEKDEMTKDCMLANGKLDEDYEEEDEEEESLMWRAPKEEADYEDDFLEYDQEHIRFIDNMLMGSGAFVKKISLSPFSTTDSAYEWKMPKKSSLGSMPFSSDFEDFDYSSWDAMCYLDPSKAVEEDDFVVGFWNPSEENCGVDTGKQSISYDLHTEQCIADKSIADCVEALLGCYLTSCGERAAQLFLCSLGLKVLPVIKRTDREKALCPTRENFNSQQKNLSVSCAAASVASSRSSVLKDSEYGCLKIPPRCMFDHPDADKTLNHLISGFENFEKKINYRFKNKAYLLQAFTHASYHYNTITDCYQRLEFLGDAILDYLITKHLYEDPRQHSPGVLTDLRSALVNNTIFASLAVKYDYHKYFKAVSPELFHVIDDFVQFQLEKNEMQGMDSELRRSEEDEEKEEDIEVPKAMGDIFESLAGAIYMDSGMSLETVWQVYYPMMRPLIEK
Procedure: Filter binding assays of hDcr and different hDcr fragments were performed in the same way as previously described (7). Briefly, serial dilutions of hDcr protein were incubated in a buffer containing 20 mM Tris-HCl (pH 7.5), 25 mM NaCl, 5 mM EDTA, 1 mM dithiothreitol (DTT), 1% glycerol and ˜0.5-1 nM (1500 CPM) of 5′-end ³²P-labeled duplex RNA substrate (one strand was labeled) at room temperature for 60 min in a 30 μl of total volume. Following incubation, a 25 μl aliquot of each reaction was applied to a dot-blot apparatus equipped with three membranes: Tuffryn, Protran and Nytran (from top to bottom). After drying, the bound (on Protran) or free (on Nytran) RNAs were quantified by a Phosphorimager (GE Healthcare). Percent bound RNA, calculated as the ratio of radioactivity detected on the Protran membrane over the total input radioactivity, was plotted as a function of protein concentration. Kd was determined by global fitting to the equation: kobsd=(kₘₐₓ[…]) (Kd+[Dicer])−1, where kobsd is the observed rate constant at a given protein concentration, kₘₐₓ is the maximal rate constant with saturating protein, and Kd is the protein concentration that provides half the maximal rate. Curve fitting was conducted with KaleidaGraph (Synergy Software, Reading, Pa.).
To establish the relationship between cleavage activity and substrate binding, nitrocellulose filter-binding assays were performed with three kinds of RNAs under non-cleavage conditions: substrate dsRNA ([…]), Dicer product-mimic dsRNA (19-bp) and a pre-miRNA (pre-hlet-7a-1).

[3] = target: T3, DP, tandem DUF283-PAZ domains of human Dicer (605-1068), bacterially expressed
T3 chain: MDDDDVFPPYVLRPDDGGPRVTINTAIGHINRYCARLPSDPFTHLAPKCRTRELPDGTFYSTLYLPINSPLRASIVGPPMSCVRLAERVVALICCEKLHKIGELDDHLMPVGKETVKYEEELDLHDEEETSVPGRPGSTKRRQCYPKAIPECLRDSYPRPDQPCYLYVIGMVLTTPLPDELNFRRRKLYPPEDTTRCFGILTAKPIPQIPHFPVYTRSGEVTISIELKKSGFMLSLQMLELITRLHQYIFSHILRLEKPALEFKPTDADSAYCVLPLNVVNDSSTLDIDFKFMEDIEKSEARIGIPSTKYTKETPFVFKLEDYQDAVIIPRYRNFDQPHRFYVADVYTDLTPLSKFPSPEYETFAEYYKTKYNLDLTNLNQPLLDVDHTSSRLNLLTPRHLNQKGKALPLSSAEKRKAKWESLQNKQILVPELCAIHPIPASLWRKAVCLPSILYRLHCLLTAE

[4] = target: T4, hDcr-N, N-terminal fragment of human Dicer (1-1068; ATPase/hel, DUF283 and PAZ domains), co-expressed in Sf9 … (human, UniProt Q9UPY3 1-1068); assay: co-expression in Sf9 cells, co-purification
T4 construct: Co-expressed with hDcr-C in baculovirus-infected Sf9 cells; It could not be expressed alone
T4 sequence: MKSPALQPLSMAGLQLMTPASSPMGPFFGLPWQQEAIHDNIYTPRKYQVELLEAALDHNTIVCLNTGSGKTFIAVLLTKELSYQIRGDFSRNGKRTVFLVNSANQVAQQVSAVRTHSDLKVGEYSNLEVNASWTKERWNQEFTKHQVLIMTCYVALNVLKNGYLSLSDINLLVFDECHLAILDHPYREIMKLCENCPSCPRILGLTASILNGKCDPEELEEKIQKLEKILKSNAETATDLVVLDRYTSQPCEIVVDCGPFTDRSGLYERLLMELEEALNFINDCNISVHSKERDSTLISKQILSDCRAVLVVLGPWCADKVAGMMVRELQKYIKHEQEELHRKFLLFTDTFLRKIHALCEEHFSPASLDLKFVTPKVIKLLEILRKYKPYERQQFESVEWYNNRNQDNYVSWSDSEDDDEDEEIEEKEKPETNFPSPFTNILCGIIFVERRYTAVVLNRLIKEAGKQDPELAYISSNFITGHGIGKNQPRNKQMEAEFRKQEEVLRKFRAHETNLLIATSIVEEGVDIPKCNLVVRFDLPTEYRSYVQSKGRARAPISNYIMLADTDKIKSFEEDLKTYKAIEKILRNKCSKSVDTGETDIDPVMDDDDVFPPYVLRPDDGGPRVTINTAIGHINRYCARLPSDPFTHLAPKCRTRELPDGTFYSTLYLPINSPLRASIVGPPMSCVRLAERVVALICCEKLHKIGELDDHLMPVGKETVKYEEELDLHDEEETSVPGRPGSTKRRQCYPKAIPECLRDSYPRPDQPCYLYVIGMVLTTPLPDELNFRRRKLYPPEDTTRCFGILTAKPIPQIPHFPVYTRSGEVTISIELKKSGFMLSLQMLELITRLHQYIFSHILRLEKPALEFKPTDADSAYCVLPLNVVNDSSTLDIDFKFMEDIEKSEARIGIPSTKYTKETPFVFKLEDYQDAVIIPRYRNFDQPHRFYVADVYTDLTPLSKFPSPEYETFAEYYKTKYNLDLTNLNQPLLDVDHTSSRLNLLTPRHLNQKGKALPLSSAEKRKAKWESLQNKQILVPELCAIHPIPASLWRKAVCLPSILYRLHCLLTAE

B1: pre-hlet-7a-1 (ssRNA)
RNA: UGAGGUAGUAGGUUGUAUAGUUUUAGGGUCACACCCACCACUGGGAGAUAACUAUACAAUCUACUGUCUUACC
binding result [1]: no binding | binding result ([2]; label: 5'-32P, hairpin pre-miRNA, 73 nt): no binding

B2: 37ab (dsRNA)
RNA 1: UGAGGUAGUAGGUUGUAUAGUUUGAAAGUUCACGAUU
RNA 2: UCGUGAACUUUCAAACUAUACAACCUACUACCUCAUU
binding result ([2]; label: 5'-32P on one strand (37a), perfectly matched 35-bp duplex): no binding

binding result [4]: binds
B3: hDcr-C, C-terminal fragment of human Dicer (1235-1922; two RNase III domains and C-terminal dsRBD), co-expressed in Sf9 cells (enzyme)
chain: CTLLSNKYLDGNANKSTSDGSPVMAVMPGTTDTIQVLKGRMDSEQSPSIGYSSRTLGPNPGLILQALTLSNASDGFNLERLEMLGDSFLKHAITTYLFCTYPDAHEGRLSYMRSKKVSNCNLYRLGKKKGLPSRMVVSIFDPPVNWLPPGYVVNQDKSNTDKWEKDEMTKDCMLANGKLDEDYEEEDEEEESLMWRAPKEEADYEDDFLEYDQEHIRFIDNMLMGSGAFVKKISLSPFSTTDSAYEWKMPKKSSLGSMPFSSDFEDFDYSSWDAMCYLDPSKAVEEDDFVVGFWNPSEENCGVDTGKQSISYDLHTEQCIADKSIADCVEALLGCYLTSCGERAAQLFLCSLGLKVLPVIKRTDREKALCPTRENFNSQQKNLSVSCAAASVASSRSSVLKDSEYGCLKIPPRCMFDHPDADKTLNHLISGFENFEKKINYRFKNKAYLLQAFTHASYHYNTITDCYQRLEFLGDAILDYLITKHLYEDPRQHSPGVLTDLRSALVNNTIFASLAVKYDYHKYFKAVSPELFHVIDDFVQFQLEKNEMQGMDSELRRSEEDEEKEEDIEVPKAMGDIFESLAGAIYMDSGMSLETVWQVYYPMMRPLIEKFSANVPRSPVRELLEMEPETAKFSPAERTYDGKVRVTVEVVGKGKFKGVGRSYRIAKSAAARRALRSLKANQPQVPNS
RNA cleavage assay (37ab dsRNA), size pattern of the products [3]: addition of the DP polypeptide to the hDcr-C cleavage reaction led to RNA products similar to those produced by full-length Dicer
